# Assay results as given in PMC11919738, “Mechanism for Vipp1 spiral formation, ring biogenesis, and membrane repair” (Nature Structural & Molecular Biology, 2024).
# Positions count from the first letter of the chain named. In names and notes the source's numbering stands.
# B1: Vipp1 (vesicle-inducing protein in plastids 1) from Nostoc punctiforme (natural protein, UniProt B2J6D9 1-258, looked up)
# chain: MGLFDRIKRVVSSNLNDLVNKAEDPEKMLEQAILEMQEDLVQLRQGVAQAIAAQKRSEKQYNDAQNEINKWQRNAQLALQKGDENLARQALERKKTYTDTSAALKASLDTQSTQVETLKRNLIQLESKISEAKTKKEMLKARITTAKAQEQLQGMVRGMNTSSAMSAFERMEEKVLMQESRAQALGELAGADLETQFAQLEGGSDVDDELAALKAQMLPPATPVTQAQLPPQQETTPAKSNEVVDAELDSLRKQLDQL
# notes: Vipp1, Nostoc punctiforme, UniProt B2J6D9; model built for amino acids 1-214 in Vipp1L1; Forms polymers (helical filaments, rings, sheets, spirals); the number of subunits is not fixed; RingsHS are the same protein purified with 50 mM NaCl in the SEC buffer; also called IM30; native Vipp1; source: E. coli C43 (DE3) with pspA gene knockout, purified (amylose resin, TEV, Ni-NTA, SEC); not shown: …
# B2: Vipp1-F197K/L200K (Vipp1 interface 3 mutant) (natural protein, Nostoc punctiforme, UniProt B2J6D9 1-258, looked up)
# chain: B1 chain with F197K, L200K
# notes: Vipp1, Nostoc punctiforme, UniProt B2J6D9, with F197K and L200K; Co-purified with E. coli membrane (lipid bilayer in the filament lumen); source: E. coli C43 (DE3) with pspA gene knockout, purified (amylose resin, TEV, Ni-NTA, SEC); not shown: His6, N-terminal, cleaved; MBP, N-terminal, cleaved
# B3: Vipp1Δα6_(1–219) (Vipp1 with the C-terminal domain truncated) (domain or fragment, Nostoc punctiforme, UniProt B2J6D9 1-219, looked up)
# chain: MGLFDRIKRVVSSNLNDLVNKAEDPEKMLEQAILEMQEDLVQLRQGVAQAIAAQKRSEKQYNDAQNEINKWQRNAQLALQKGDENLARQALERKKTYTDTSAALKASLDTQSTQVETLKRNLIQLESKISEAKTKKEMLKARITTAKAQEQLQGMVRGMNTSSAMSAFERMEEKVLMQESRAQALGELAGADLETQFAQLEGGSDVDDELAALKAQMLP
# notes: model built for amino acids 1-217; also called Vipp1_(Δα6_L2); Vipp1_(Δα6_L3); source: E. coli C43 (DE3) with pspA gene knockout, purified (amylose resin, TEV, Ni-NTA, SEC); not shown: His6, N-terminal, cleaved; MBP, N-terminal, cleaved
# Target: the molecule itself
# Assay: cryo-EM structure; helical filaments of purified protein, 60 µM, low-salt SEC buffer, helical reconstruction
row,Protein,binding result
1,B1,binds
2,B2,binds
3,B3,binds
